Substitutions are numbered along the chain they refer to.

Data on two molecules can be found in paper PMC7913688, “Human Rev1 relies on insert-2 to promote selective binding and accurate replication of stabilized G-quadruplex motifs”.

Common to all, as to conditions: protein: recombinant, label: 5'-FAM
One series deals with T1, hRev1 full-length (human, UniProt Q9UBZ9 1-1251).
T1 sequence: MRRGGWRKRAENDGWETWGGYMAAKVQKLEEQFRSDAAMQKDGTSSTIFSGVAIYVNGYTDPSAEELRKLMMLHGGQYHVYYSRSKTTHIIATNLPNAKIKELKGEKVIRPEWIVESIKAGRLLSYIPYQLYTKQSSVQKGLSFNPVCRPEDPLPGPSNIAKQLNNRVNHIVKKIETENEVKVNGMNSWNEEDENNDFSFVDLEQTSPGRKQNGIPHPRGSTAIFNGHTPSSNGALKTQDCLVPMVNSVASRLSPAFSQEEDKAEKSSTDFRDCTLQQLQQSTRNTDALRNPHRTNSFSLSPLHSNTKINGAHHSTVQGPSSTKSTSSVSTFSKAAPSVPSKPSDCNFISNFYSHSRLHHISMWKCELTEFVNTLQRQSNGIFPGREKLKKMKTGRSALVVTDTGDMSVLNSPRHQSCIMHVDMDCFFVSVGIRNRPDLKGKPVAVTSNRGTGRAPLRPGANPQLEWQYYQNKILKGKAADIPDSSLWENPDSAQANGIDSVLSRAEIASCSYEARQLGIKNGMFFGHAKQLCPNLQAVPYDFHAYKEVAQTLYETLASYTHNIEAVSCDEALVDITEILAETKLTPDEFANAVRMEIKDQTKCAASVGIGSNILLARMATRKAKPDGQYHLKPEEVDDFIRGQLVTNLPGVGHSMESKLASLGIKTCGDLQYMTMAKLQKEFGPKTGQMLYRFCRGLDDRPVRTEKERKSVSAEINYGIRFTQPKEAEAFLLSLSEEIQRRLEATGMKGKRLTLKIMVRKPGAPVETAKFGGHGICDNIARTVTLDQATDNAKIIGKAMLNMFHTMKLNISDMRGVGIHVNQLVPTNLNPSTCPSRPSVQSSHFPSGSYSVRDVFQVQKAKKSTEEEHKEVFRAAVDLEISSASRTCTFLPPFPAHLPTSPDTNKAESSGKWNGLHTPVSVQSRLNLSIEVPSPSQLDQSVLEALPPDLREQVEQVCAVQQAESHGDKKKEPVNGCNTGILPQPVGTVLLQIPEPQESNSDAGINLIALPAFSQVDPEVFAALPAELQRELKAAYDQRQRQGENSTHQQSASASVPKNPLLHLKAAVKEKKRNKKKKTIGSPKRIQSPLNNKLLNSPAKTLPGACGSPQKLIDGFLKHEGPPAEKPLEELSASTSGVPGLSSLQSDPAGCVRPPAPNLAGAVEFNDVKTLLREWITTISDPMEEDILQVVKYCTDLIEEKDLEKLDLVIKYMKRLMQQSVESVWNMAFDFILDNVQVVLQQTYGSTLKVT
Nature of the series: fluorescence polarization; 100 mM KCl; Fluorescence polarization: 1 nM FAM-DNA, 100 mM KCl or LiCl; DNA annealed in 50 mM HEPES pH 7.5; full buffer as in cited ref 17, temperature not stated. Footprinting: 50 mM HEPES pH 7.5, 100 mM KCl, 10 uM protein, 30 uM ssDNA, room temperature. For orientation: Polarisation of emitted light reports the rotation of a fluorescent probe.

The target in series [1] is T2, hRev1 330-833 polymerase core (human, UniProt Q9UBZ9 330-833).
T2 sequence: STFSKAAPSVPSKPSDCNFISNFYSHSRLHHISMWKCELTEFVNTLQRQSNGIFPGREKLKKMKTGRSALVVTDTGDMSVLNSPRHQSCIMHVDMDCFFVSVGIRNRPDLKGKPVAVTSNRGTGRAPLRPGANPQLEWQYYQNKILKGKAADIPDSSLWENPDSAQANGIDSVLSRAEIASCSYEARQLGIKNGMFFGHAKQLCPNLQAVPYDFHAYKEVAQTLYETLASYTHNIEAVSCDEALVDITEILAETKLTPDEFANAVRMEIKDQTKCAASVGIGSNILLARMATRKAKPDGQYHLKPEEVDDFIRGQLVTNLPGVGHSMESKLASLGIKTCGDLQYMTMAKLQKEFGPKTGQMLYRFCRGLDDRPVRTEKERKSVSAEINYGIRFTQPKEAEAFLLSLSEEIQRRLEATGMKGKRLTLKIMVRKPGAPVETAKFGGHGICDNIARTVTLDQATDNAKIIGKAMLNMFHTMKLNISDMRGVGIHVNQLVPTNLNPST
The description is as above.

The next series concerns the target T3, hRev1 330-833 Y470A (human, UniProt Q9UBZ9 330-833, Y470A).
T3 sequence: T2 sequence with Y141A
Nature of the series: fluorescence polarization; 100 mM KCl?; Fluorescence polarization: 1 nM FAM-DNA, 100 mM KCl or LiCl; DNA annealed in 50 mM HEPES pH 7.5; full buffer as in cited ref 17, temperature not stated. Footprinting: 50 mM HEPES pH 7.5, 100 mM KCl, 10 uM protein, 30 uM ssDNA, room temperature.

[2] abbreviates: parallel G4 (1:2:1 loops) in K+.

Regarding AGCGTGCGTAGCGTGCGTTATGAGATGAT (ssDNA) [Non-G4 Myc control ss], the Kd was 110 ± 20 nM with hRev1 full-length, 910 ± 120 nM in series [1] and 740 ± 180 nM in the series with hRev1 330-833 Y470A.
With AGGGTGGGTAGGGTGGGTTATGAGATGAT (structured_DNA) [Myc 14/23 ss G4], the results for the Kd (with hRev1 full-length (setting [2]); in series [1] (setting [2]); in the series with hRev1 330-833 Y470A (setting [2])) were 5 ± 1 nM, 37 ± 7 nM and 180 ± 30 nM, respectively.

What is called Kd is the constant that tells how readily two partners part at equilibrium.
